What was measured:
CELF1 RRM23 (Xenopus) = experiment: ITC; conditions: ITC: 25 mM potassium phosphate, 100 mM NaCl, pH 7.0, 25 C, 12.5 uM protein, 125 uM RNA in syringe; NMR: same buffer, 298 K, ~200-250 uM protein
CELF1 RRM123 [1] = molecular target: T1, CELF1 RRM123 (Xenopus, UniProt O57406 1-214+385-489, internal_change); experiment: NMR PRE; strongest PRE in RRM2; ITC: 25 mM potassium phosphate, 100 mM NaCl, pH 7.0, 25 C, 12.5 uM protein, 125 uM RNA in syringe; NMR: same buffer, 298 K, ~200-250 uM protein; conditions: protein: recombinant; tags: N-terminal His; label: MTSL on 5' 4-thiouridine; single strand
CELF1 RRM1 = CELF1 RRM1 (Xenopus, UniProt O57406 16-99); experiment: NMR PRE; ITC: 25 mM potassium phosphate, 100 mM NaCl, pH 7.0, 25 C, 12.5 uM protein, 125 uM RNA in syringe; NMR: same buffer, 298 K, ~200-250 uM protein; conditions: protein: recombinant; tags: His; label: MTSL on 5' 4-thiouridine; single strand
CELF1 RRM123 [2] = molecular target: T1, CELF1 RRM123; experiment: ITC; n=1.64; ITC: 25 mM potassium phosphate, 100 mM NaCl, pH 7.0, 25 C, 12.5 uM protein, 125 uM RNA in syringe; NMR: same buffer, 298 K, ~200-250 uM protein; conditions: protein: recombinant; tags: N-terminal His; single strand
CELF1 RRM123 [3] = molecular target: T1, CELF1 RRM123; experiment: ITC; n=1.45; ITC: 25 mM potassium phosphate, 100 mM NaCl, pH 7.0, 25 C, 12.5 uM protein, 125 uM RNA in syringe; NMR: same buffer, 298 K, ~200-250 uM protein; conditions: protein: recombinant; tags: N-terminal His; single strand
CELF1 RRM123 [4] = molecular target: T1, CELF1 RRM123; experiment: ITC; n=0.85; ITC: 25 mM potassium phosphate, 100 mM NaCl, pH 7.0, 25 C, 12.5 uM protein, 125 uM RNA in syringe; NMR: same buffer, 298 K, ~200-250 uM protein; conditions: protein: recombinant; tags: N-terminal His; single strand
[5] = molecular target: CELF1 full-length wild type (Xenopus, UniProt O57406 1-489); experiment: NMR; extensive line broadening; ITC: 25 mM potassium phosphate, 100 mM NaCl, pH 7.0, 25 C, 12.5 uM protein, 125 uM RNA in syringe; NMR: same buffer, 298 K, ~200-250 uM protein; conditions: protein: recombinant, tags: N-terminal His
CELF1 RRM123 [6] = molecular target: T1, CELF1 RRM123; experiment: ITC; n=0.83; ITC: 25 mM potassium phosphate, 100 mM NaCl, pH 7.0, 25 C, 12.5 uM protein, 125 uM RNA in syringe; NMR: same buffer, 298 K, ~200-250 uM protein; conditions: protein: recombinant; tags: N-terminal His; hairpin, 4 bp stem, single-stranded 5' and 3' tails
CELF1 RRM123 [7] = molecular target: T1, CELF1 RRM123; experiment: NMR PRE; strongest PRE in RRM3; ITC: 25 mM potassium phosphate, 100 mM NaCl, pH 7.0, 25 C, 12.5 uM protein, 125 uM RNA in syringe; NMR: same buffer, 298 K, ~200-250 uM protein; conditions: protein: recombinant; tags: N-terminal His; label: MTSL on 3' 4-thiouridine; single strand
CELF1 RRM123 [8] = molecular target: T1, CELF1 RRM123; experiment: ITC; n=0.79; ITC: 25 mM potassium phosphate, 100 mM NaCl, pH 7.0, 25 C, 12.5 uM protein, 125 uM RNA in syringe; NMR: same buffer, 298 K, ~200-250 uM protein; conditions: protein: recombinant; tags: N-terminal His; single strand
CELF1 RRM123 [9] = molecular target: T1, CELF1 RRM123; experiment: ITC; n=0.67; ITC: 25 mM potassium phosphate, 100 mM NaCl, pH 7.0, 25 C, 12.5 uM protein, 125 uM RNA in syringe; NMR: same buffer, 298 K, ~200-250 uM protein; conditions: protein: recombinant; tags: N-terminal His; single strand
CELF1 RRM123 [10] = molecular target: T1, CELF1 RRM123; experiment: ITC; n=1.19; text gives 1.50 +/- 0.28; ITC: 25 mM potassium phosphate, 100 mM NaCl, pH 7.0, 25 C, 12.5 uM protein, 125 uM RNA in syringe; NMR: same buffer, 298 K, ~200-250 uM protein; conditions: protein: recombinant; tags: N-terminal His; single strand

T1 sequence (O57406 other isoform, or with tags, fused parts or gaps): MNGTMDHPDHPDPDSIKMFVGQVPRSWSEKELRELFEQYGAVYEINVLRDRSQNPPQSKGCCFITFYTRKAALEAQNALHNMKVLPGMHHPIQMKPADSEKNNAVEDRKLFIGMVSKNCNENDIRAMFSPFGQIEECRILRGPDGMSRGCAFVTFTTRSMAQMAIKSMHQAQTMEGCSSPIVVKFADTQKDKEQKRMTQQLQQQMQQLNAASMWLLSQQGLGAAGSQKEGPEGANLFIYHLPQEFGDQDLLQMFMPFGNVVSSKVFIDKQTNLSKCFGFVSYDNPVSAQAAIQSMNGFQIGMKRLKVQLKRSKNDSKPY
Chain of CELF1 full-length wild type (O57406 whole entry): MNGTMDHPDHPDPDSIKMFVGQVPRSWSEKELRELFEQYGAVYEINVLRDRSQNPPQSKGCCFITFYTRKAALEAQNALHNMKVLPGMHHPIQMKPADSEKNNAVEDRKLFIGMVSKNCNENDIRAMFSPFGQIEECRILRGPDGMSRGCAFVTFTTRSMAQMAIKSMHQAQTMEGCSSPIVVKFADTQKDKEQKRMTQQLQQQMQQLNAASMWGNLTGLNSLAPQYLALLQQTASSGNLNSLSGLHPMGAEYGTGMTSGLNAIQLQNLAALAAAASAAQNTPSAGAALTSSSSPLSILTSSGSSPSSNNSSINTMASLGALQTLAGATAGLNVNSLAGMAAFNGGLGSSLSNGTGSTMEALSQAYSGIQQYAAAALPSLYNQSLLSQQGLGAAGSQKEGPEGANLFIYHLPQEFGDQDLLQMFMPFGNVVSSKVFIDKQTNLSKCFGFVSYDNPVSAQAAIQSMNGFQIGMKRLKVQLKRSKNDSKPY
Chain of CELF1 RRM1 (O57406 16-99): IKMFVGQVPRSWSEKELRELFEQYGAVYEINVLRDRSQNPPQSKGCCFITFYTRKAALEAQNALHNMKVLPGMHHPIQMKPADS

RNA with UGU(U) site used with RRM23
Kd (CELF1 RRM23 (Xenopus)): 520 nM

UUGUUUUGUUUUUUGU (ssRNA, additional 5'-terminal 4-thiouridine) [5'-U* EDEN-2U/4U]
binding result (CELF1 RRM123 [1]): binds

UUGU (ssRNA, 5'-terminal 4-thiouridine) [5'-U*UGU]
binding result (CELF1 RRM1): binds

UGUUUUUUGU (ssRNA) [EDEN-4U]
Kd (CELF1 RRM123 [2]): 2080 ± 400 nM

UGUUUGUUUGU (ssRNA) [EDEN11 (GRE)]
Kd (CELF1 RRM123 [3]): 2200 ± 300 nM

UGUUUUGUUUUUUGU (ssRNA) [EDEN-2U/4U]
Kd (CELF1 RRM123 [4]): 110 ± 20 nM | binding result ([5]; single strand): binds

UGUUUUGUUCCCGAGGACGGGUUGU (structured_RNA) [EDEN-2U/HL]
Kd (CELF1 RRM123 [6]): 550 ± 80 nM | binding result ([5]; hairpin, 4 bp stem, single-stranded 5' and 3' tails): binds

UGUUUUGUUUUUUGUU (ssRNA, 3'-terminal 4-thiouridine (taken as an additional nucleotide; not explicit)) [3'-U* EDEN-2U/4U]
binding result (CELF1 RRM123 [7]): binds

UGUAUGUGUUGUUUUAUGU (ssRNA) [EDEN19]
Kd (CELF1 RRM123 [8]): 330 ± 70 nM

UGUUUUUUGUUUUGU (ssRNA) [EDEN-4U/2U]
Kd (CELF1 RRM123 [9]): 980 ± 120 nM

UGUUUUGUUUGU (ssRNA) [EDEN-2U/1U]
Kd (CELF1 RRM123 [10]): 1490 ± 230 nM

From paper PMC3737555, “Structural insights into the targeting of mRNA GU-rich elements by the three RRMs of CELF1”
